{
  "source": "paper PMC4843776",
  "about": "(Biochemistry, 2016)",
  "molecules": {"B1": {"name": "leupaxin^1-151 (human leupaxin; residues 1-151) (domain or fragment, UniProt O60711 1-151, looked up)", "chain": "MEELDALLEELERSTLQDSDEYSNPAPLPLDQHSRKETNLDETSEILSIQDNTSPLPAQLVYTTNIQELNVYSEAQEPKESPPPSKTSAAAQLDELMAHLTEMQAKVAVRADAGKKHLPDKQDHKASLDSMLGGLEQELQDLGIATVPKGH"}, "B2": {"name": "leupaxin^1-105 (human leupaxin; residues 1-105) (domain or fragment, UniProt O60711 1-105, looked up)", "chain": "MEELDALLEELERSTLQDSDEYSNPAPLPLDQHSRKETNLDETSEILSIQDNTSPLPAQLVYTTNIQELNVYSEAQEPKESPPPSKTSAAAQLDELMAHLTEMQA"}},
  "key": {"[1]": {"tested_on": "Pyk2-FAT", "assay": "NMR titration / chemical shift perturbation of 15N-labeled Pyk2-FAT", "assay_type": "binding, human"}, "[2]": {"target": "FAT domain of human Pyk2 (residues 871-1005) (Homo sapiens, UniProt Q14289)", "assay": "ITC of leupaxin LD peptides and leupaxin^1-105 binding to Pyk2-FAT"}, "[3]": {"tested_on": "Pyk2-FAT domain", "details": "ref [36]; cited from earlier work"}, "[4]": {"target": "Pyk2-FAT-LD1 (Homo sapiens, UniProt Q14289)", "details": "X-ray, 2.0 Å (4XEV); 0.5 mM protein, 2 mM leupaxin-LD4 peptide"}, "[5]": {"target": "paxillin LD4 LD4 motif peptide (Homo sapiens) (UniProt P49023)", "details": "cited from earlier work"}, "[6]": {"target": "Paxillin LD4 peptide LD4 (Homo sapiens) (UniProt P49023)", "sequence (P49023 263-282)": "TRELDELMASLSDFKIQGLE", "details": "cited from earlier work"}, "[7]": {"target": "Paxillin LD4 peptide LD4 (Homo sapiens) (UniProt P49023)", "details": "cited from earlier work", "remark": "listed apart in the source"}, "[8]": {"target": "paxillin LD4 LD4 motif peptide (Homo sapiens) (UniProt P49023)", "details": "cited from earlier work", "remark": "listed apart in the source"}, "[9]": {"target": "T1, FAT domain of human Pyk2 (residues 871-1005) (human, UniProt Q14289 871-1005)", "assay": "ITC"}, "[10]": {"target": "T1, FAT domain of human Pyk2 (residues …)", "assay": "SEC-MALS"}, "[11]": {"target": "T1, FAT domain of human Pyk2 (residues …)", "assay": "ITC", "remark": "listed apart in the source"}, "[12]": {"details": "ITC, 20 mM MES, pH 6.2, 15°C, two-site sequential model, first site, duplicate"}, "[13]": {"details": "ITC, 20 mM MES, pH 6.2, 15°C, two-site sequential model, second site, duplicate"}},
  "note": "Like-named read-outs stand apart in the source and are kept apart here. Where no end group is shown, it is not given here.",
  "data": [
    {"molecule": "KTSAAAQLDELMAHLTEMQ [leupaxin-LD4]", "values": [
      {"measurement": "CSP differences between leupaxin-LD1 and leupaxin-LD4", "setting": "[1]; 4 equivalents peptide, 15N-labeled Pyk2-FAT, 20 mM MES, pH 6.2, 305K", "result": "residues Arg 918 and Ala 951 from H2/H3 show a high magnitude of CSP"},
      {"measurement": "NMR site preference on Pyk2-FAT", "setting": "[1]; NMR titrations, LD1 for H1/H4, LD4 for H2/H3, respectively", "result": "strong preference for H1/H4 and H2/H3 sites of Pyk2-FAT, respectively"},
      {"measurement": "Stoichiometry of binding (peptide to Pyk2-FAT)", "setting": "[2]; ITC, 20 mM MES, pH 6.2, 15°C", "result": "2 to 1", "unit": "stoichiometry"},
      {"measurement": "ΔG, first site", "setting": "[2]; [12]", "result": "-7.6 ± 0.3", "unit": "kcal/mol"},
      {"measurement": "ΔH, first site", "setting": "[2]; [12]", "result": "-3.0 ± 0.2", "unit": "kcal/mol"},
      {"measurement": "−T.ΔS, first site", "setting": "[2]; [12]", "result": "-4.6 ± 0.6", "unit": "kcal/mol"},
      {"measurement": "ΔG, second site", "setting": "[2]; [13]", "result": "-6.0 ± 0.1", "unit": "kcal/mol"},
      {"measurement": "ΔH, second site", "setting": "[2]; [13]", "result": "0.5 ± 0.3", "unit": "kcal/mol"},
      {"measurement": "−T.ΔS, second site", "setting": "[2]; [13]", "result": "-6.5 ± 0.4", "unit": "kcal/mol"},
      {"measurement": "Higher affinity at the preferred Pyk2-FAT binding site", "setting": "[2]; ratio of the two site KDs (LD1 prefers H1/H4, LD4 prefers H2/H3)", "result": "~19", "unit": "fold"},
      {"measurement": "Binding behaviour with Pyk2-FAT (in words)", "setting": "[3]", "result": "compete equally for H2/H3"},
      {"measurement": "Binding site in crystal structure with Pyk2-FAT-LD1", "setting": "[4]", "result": "binds at the H2/H3 site"}
    ]},
    {"molecule": "Pyk2 FAT (871-1005), H2/H3 site (from UniProt Q14289)", "values": [
      {"measurement": "Kd", "setting": "[5]", "result": 8, "unit": "µM"}
    ]},
    {"molecule": "Pyk2 FAT H1/H4 site (from UniProt Q14289)", "values": [
      {"measurement": "Kd", "setting": "[6]", "result": 46.3, "unit": "µM"}
    ]},
    {"molecule": "Pyk2 FAT H2/H3 site (from UniProt Q14289)", "values": [
      {"measurement": "Kd", "setting": "[7]", "result": 8, "unit": "µM"}
    ]},
    {"molecule": "Pyk2 FAT (871-1005), H1/H4 site (from UniProt Q14289)", "values": [
      {"measurement": "Kd", "setting": "[8]", "result": 46.3, "unit": "µM"}
    ]},
    {"molecule": "MEELDALLEELERSTLQDSD (peptide, UniProt O60711 1-20, looked up)", "note": "[leupaxin-LD1 peptide (human leupaxin; residues 1-20)]", "values": [
      {"measurement": "dH first site", "setting": "[9]", "result": "-2 ± 0.2", "unit": "kcal/mol"},
      {"measurement": "dH second site", "setting": "[9]", "result": "1.6 ± 0.3", "unit": "kcal/mol"}
    ]},
    {"molecule": "B1", "values": [
      {"measurement": "stoichiometry N", "setting": "[10]", "result": 1}
    ]},
    {"molecule": "B2", "values": [
      {"measurement": "Kd", "setting": "[11]", "result": "0.6 ± 0.2", "unit": "µM"},
      {"measurement": "dH", "setting": "[11]", "result": "-2.5 ± 0.5", "unit": "kcal/mol"},
      {"measurement": "stoichiometry N", "setting": "[11]", "result": 1}
    ]},
    {"molecule": "KTSAAAQLDELMAHLTEMQ (peptide, UniProt O60711 86-104, looked up)", "note": "[leupaxin-LD4 peptide (human leupaxin; residues 86-104)]", "values": [
      {"measurement": "KD first site", "setting": "[9]", "result": "2.2 ± 1", "unit": "µM"},
      {"measurement": "KD second site", "setting": "[9]", "result": "33 ± 7.2", "unit": "µM"},
      {"measurement": "dH first site", "setting": "[9]", "result": "-3 ± 0.2", "unit": "kcal/mol"},
      {"measurement": "dH second site", "setting": "[9]", "result": "0.5 ± 0.3", "unit": "kcal/mol"}
    ]}
  ]
}
